Measured values reported in patent publication US20130064834A1 (published 2013).

What was measured:
[1] = molecular target: T1, mouse PCSK9, myc-myc-his tagged (mouse, UniProt Q80W65 35-694); assay: competition ELISA vs EGF-A, pH 5.5
T1 construct: also called mPCSK9-mmh; mPCSK9
Description: (§1) Briefly, hLDLR-ecto, hLDLR EGF-A-hFc or hLDLR EGF-AB-hFc, each at 2 μg/ml, was coated on a 96-well plate in PBS buffer overnight at 4° C., and nonspecific binding sites blocked with BSA. […] The equilibrated sample solutions were transferred to receptor or receptor fragment coated plates.

[2] = molecular target: T2, rat (Rattus norvegicus) PCSK9, myc-myc-his tagged (rat (Rattus norvegicus), UniProt P59996 31-691); assay: competition ELISA vs EGF-A, pH 5.5
T2 construct: also called rPCSK9-mmh; rPCSK9
Description: as §1

[3] = molecular target: T3, tagged rhesus monkey (Macaca mulata) PCSK9 (rhesus monkey (Macaca mulata), UniProt A8T666 31-692); assay: competition ELISA vs EGF-AB-hFc, pH 7.2
T3 construct: also called mmPCSK9-mmh; mmPCSK9
Description: as §1

[4] = molecular target: T1, mouse PCSK9, myc-myc-his tagged; assay: competition ELISA vs EGF-AB-hFc, pH 7.2
Description: as §1

[5] = molecular target: T3, tagged rhesus monkey (Macaca mulata) …; assay: competition ELISA vs EGF-A-hFc, pH 7.2
Description: as §1

[6] = molecular target: T1, mouse PCSK9, myc-myc-his tagged; assay: competition ELISA vs EGF-A-hFc, pH 7.2
Description: as §1

[7] = molecular target: T4, Human PCSK9-myc-myc-his (human, UniProt Q8NBP7 31-692); assay: SPR, antigen captured at high density, pH 5.5, 25C
T4 construct: also called hPCSK9-mmh; hPCSK9

[8] = molecular target: T5, hPCSK9(S147F) (human, UniProt Q8NBP7 31-692); assay: ELISA, mAb coated, variant 0-5 nM
T5 construct: mmh-tagged variant hPCSK9
Description: (§2) Anti-PCSK9 mAbs were coated on a 96-well plate overnight at 4° C.

[9] = molecular target: T4, Human PCSK9-myc-myc-his; assay: ELISA, mAb coated, variant 0-5 nM
Description: as §2

[10] = molecular target: T6, hPCSK9(F216L) (human, UniProt Q8NBP7 31-692); assay: ELISA, mAb coated, variant 0-5 nM
T6 construct: mmh-tagged variant hPCSK9
Description: as §2

[11] = molecular target: T7, hPCSK9(E197R) (human, UniProt Q8NBP7 31-692); assay: ELISA, mAb coated, variant 0-5 nM
T7 construct: mmh-tagged variant hPCSK9
Description: as §2

[12] = molecular target: T8, hPCSK9(E366K, V380M) (human, UniProt Q8NBP7 31-692); assay: ELISA, mAb coated, variant 0-5 nM
T8 construct: mmh-tagged variant hPCSK9
Description: as §2

[13] = molecular target: T9, hPCSK9(V380M) (human, UniProt Q8NBP7 31-692); assay: ELISA, mAb coated, variant 0-5 nM
T9 construct: mmh-tagged variant hPCSK9
Description: as §2

[14] = molecular target: T10, hPCSK9(D192R) (human, UniProt Q8NBP7 31-692); assay: ELISA, mAb coated, variant 0-5 nM
T10 construct: mmh-tagged variant hPCSK9
Description: as §2

[15] = molecular target: T11, hPCSK9(T162R) (human, UniProt Q8NBP7 31-692); assay: ELISA, mAb coated, variant 0-5 nM
T11 construct: mmh-tagged variant hPCSK9
Description: as §2

[16] = molecular target: T12, hPCSK9(S127R) (human, UniProt Q8NBP7 31-692); assay: ELISA, mAb coated, variant 0-5 nM
T12 construct: mmh-tagged variant hPCSK9
Description: as §2

[17] = molecular target: T13, hPCSK9(E159R) (human, UniProt Q8NBP7 31-692); assay: ELISA, mAb coated, variant 0-5 nM
T13 construct: mmh-tagged variant hPCSK9
Description: as §2

[18] = molecular target: T14, hPCSK9(R215H) (human, UniProt Q8NBP7 31-692); assay: ELISA, mAb coated, variant 0-5 nM
T14 construct: mmh-tagged variant hPCSK9
Description: as §2

[19] = molecular target: T15, hPCSK9(D343R) (human, UniProt Q8NBP7 31-692); assay: ELISA, mAb coated, variant 0-5 nM
T15 construct: mmh-tagged variant hPCSK9
Description: as §2

[20] = molecular target: T16, hPCSK9(A341R) (human, UniProt Q8NBP7 31-692); assay: ELISA, mAb coated, variant 0-5 nM
T16 construct: mmh-tagged variant hPCSK9
Description: as §2

[21] = molecular target: T17, hPCSK9(R215E) (human, UniProt Q8NBP7 31-692); assay: ELISA, mAb coated, variant 0-5 nM
T17 construct: mmh-tagged variant hPCSK9
Description: as §2

[22] = molecular target: hPCSK9(P70A, S147F) (human, UniProt Q8NBP7 31-692); assay: ELISA, mAb coated, variant 0-5 nM
Description: as §2

[23] = molecular target: hPCSK9(P70A) (human, UniProt Q8NBP7 31-692); assay: ELISA, mAb coated, variant 0-5 nM
Description: as §2

[24] = molecular target: T18, hPCSK9(D238R) (human, UniProt Q8NBP7 31-692); assay: ELISA, mAb coated, variant 0-5 nM
T18 construct: mmh-tagged variant hPCSK9
Description: as §2

[25] = molecular target: T19, hPCSK9(R357H) (human, UniProt Q8NBP7 31-692); assay: ELISA, mAb coated, variant 0-5 nM
T19 construct: mmh-tagged variant hPCSK9
Description: as §2

[26] = molecular target: T20, hPCSK9(E366K) (human, UniProt Q8NBP7 31-692); assay: ELISA, mAb coated, variant 0-5 nM
T20 construct: mmh-tagged variant hPCSK9
Description: as §2

[27] = molecular target: T21, hPCSK9(R237E) (human, UniProt Q8NBP7 31-692); assay: ELISA, mAb coated, variant 0-5 nM
T21 construct: mmh-tagged variant hPCSK9
Description: as §2

[28] = molecular target: T22, hPCSK9(D129G) (human, UniProt Q8NBP7 31-692); assay: ELISA, mAb coated, variant 0-5 nM
T22 construct: mmh-tagged variant hPCSK9
Description: as §2

[29] = molecular target: T23, hPCSK9(S153R) (human, UniProt Q8NBP7 31-692); assay: ELISA, mAb coated, variant 0-5 nM
T23 construct: mmh-tagged variant hPCSK9
Description: as §2

[30] = molecular target: T24, hPCSK9(R194E) (human, UniProt Q8NBP7 31-692); assay: ELISA, mAb coated, variant 0-5 nM
T24 construct: mmh-tagged variant hPCSK9
Description: as §2

[31] = molecular target: T4, Human PCSK9-myc-myc-his; assay: competition ELISA vs EGF-AB-hFc, pH 7.2
Description: as §1

[32] = molecular target: T25, hPCSK9(D374Y)-mmh (human, UniProt Q8NBP7 31-692); assay: competition ELISA vs EGF-A-hFc, pH 7.2
T25 construct: also called hPCSK(D374Y)-mmh
Description: as §1

T3 sequence (A8T666 31-692 limits assumed): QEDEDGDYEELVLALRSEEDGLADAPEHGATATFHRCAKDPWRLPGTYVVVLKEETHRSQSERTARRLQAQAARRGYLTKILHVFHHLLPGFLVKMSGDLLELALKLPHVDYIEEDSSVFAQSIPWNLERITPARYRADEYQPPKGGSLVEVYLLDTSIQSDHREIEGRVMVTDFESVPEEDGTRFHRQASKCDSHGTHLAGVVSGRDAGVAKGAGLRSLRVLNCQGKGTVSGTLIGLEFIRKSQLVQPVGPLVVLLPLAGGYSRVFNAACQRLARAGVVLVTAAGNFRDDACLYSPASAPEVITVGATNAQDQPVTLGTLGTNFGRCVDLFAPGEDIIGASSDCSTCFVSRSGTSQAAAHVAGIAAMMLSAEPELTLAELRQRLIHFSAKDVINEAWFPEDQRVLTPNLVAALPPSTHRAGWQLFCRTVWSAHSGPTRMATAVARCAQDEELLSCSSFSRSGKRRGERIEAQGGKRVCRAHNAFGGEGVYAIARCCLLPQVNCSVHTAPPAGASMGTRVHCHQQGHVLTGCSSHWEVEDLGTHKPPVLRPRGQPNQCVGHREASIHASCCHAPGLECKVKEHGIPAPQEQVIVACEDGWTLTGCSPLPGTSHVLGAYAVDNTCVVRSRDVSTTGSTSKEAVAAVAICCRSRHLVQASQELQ
T2 sequence (P59996 31-691 limits assumed): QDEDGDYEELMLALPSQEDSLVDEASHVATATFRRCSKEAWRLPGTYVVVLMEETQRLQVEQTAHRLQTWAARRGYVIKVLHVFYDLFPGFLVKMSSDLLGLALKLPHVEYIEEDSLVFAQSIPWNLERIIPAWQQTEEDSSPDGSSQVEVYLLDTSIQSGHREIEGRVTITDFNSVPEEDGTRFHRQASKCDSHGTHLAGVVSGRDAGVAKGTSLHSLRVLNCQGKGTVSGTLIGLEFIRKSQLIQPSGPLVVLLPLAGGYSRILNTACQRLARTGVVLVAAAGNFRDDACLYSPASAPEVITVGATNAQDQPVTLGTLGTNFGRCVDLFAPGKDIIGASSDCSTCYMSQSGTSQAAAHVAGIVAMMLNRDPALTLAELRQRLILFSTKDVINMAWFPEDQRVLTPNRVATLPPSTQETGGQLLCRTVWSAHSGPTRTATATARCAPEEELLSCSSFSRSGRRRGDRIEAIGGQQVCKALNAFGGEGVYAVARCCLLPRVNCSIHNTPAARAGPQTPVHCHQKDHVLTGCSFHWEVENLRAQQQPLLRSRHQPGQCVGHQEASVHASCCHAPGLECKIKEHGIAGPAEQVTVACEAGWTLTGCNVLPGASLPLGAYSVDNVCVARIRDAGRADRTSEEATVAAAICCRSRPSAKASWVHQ

Binder	IC50 [1]	IC50 [2]	IC50 [3]	IC50 [4]	IC50 [5]	IC50 [6]	Kd [7]	T1/2 [7]	OD [8]	OD [9]	OD [10]	OD [11]	OD [12]	OD [13]	OD [14]	OD [15]	OD [16]	OD [17]	OD [18]	OD [19]	further results
H1H316P (antibody, V domains shown, Fully human mAb made in CHO cells; also called mAb316P) VH: EVQLVESGGGLVQPGGSLRLSCAASGFTFNNYAMNWVRQAPGKGLDWVSTISGSGGTTNYADSVKGRFIISRDSSKHTLYLQMNSLRAEDTAVYYCAKDSNWGNFDLWGRGTLVTVSS VL: not shown	0.991 nM	42.9 nM	< 0.25 nM	< 0.25 nM	< 0.25 nM	< 0.25 nM	0.144 nM	83 min	> 1.5 od	> 1.5 od	> 1.5 od	> 1.5 od	> 1.5 od	> 1.5 od	> 1.5 od	> 1.5 od	> 1.5 od	> 1.5 od	> 1.5 od	> 1.5 od	OD [20]: > 1.5 od; OD [21]: > 1.5 od; OD [22]: > 1.5 od; OD [23]: > 1.5 od; OD [24]: < 0.7 od; OD [25]: > 1.5 od; OD [26]: > 1.5 od; OD [27]: > 1.5 od; OD [28]: > 1.5 od; OD [29]: > 1.5 od; OD [30]: > 1.5 od; IC50 [31]: < 0.125 nM; IC50 [32]: 0.203 nM
H1M300N (antibody, V domains shown, Fully human version made in CHO cells) VH: EMQLVESGGGLVQPGGSLRLSCAASGFTFSSHWMKWVRQAPGKGLEWVANINQDGSEKYYVDSVKGRFTISRDNAKNSLFLQMNSLRAEDTAVYYCARDIVLMVYDMDYYYYGMDVWGQGTTVTVSS VL: not shown	> 100 nM	> 100 nM	0.29 nM	> 33 nM	0.256 nM	> 33 nM	1.18 nM	26 min	> 1.5 od	> 1.5 od	> 1.5 od	> 1.5 od	0.7 to 1.5 od	> 1.5 od	> 1.5 od	> 1.5 od	> 1.5 od	> 1.5 od	> 1.5 od	> 1.5 od	OD [20]: > 1.5 od; OD [21]: > 1.5 od; OD [22]: > 1.5 od; OD [23]: > 1.5 od; OD [24]: > 1.5 od; OD [25]: > 1.5 od; OD [26]: 0.7 to 1.5 od; OD [27]: > 1.5 od; OD [28]: > 1.5 od; OD [29]: > 1.5 od; OD [30]: > 1.5 od; IC50 [31]: < 0.125 nM; IC50 [32]: 0.135 nM
